From publication PMC3229523, “Identification of Lactoferricin B Intracellular Targets Using an Escherichia coli Proteome Chip” (PLoS ONE, 2011)
Ends that are not written are not given here. * marks the point of attachment. Biotin = O=C1N[C@H]2[C@H](CS[C@H]2CCCCC(=O)*)N1

Columns and labels:
Experiment in all cases: peptide or protein array; E. coli proteome chip: purified His-tagged proteins printed in duplicate on Fullmoon slides, blocked with 1% BSA; 10 nM N-terminal biotinylated LfcinB with 1% BSA, room temperature, 1 h; detected with DyLight 649-labeled streptavidin, ratio to DyLight 549-labeled anti-His antibody; ProCAT normalisation, local cut-off; triplicate chips
Conditions in all cases: both partners purified
[1] = molecular target: T1, InfC (E. coli K-12, UniProt P0A707 1-180)
T1 construct: InfC, E. coli K-12
T1 sequence (looked up): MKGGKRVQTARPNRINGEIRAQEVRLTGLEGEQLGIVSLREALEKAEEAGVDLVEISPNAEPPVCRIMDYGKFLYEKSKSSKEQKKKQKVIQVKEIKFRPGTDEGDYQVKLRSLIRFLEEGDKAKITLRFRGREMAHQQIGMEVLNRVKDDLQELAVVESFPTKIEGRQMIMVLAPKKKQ

[2] = molecular target: T2, RhaD (E. coli K-12, UniProt P32169 1-274)
T2 construct: RhaD, E. coli K-12
T2 sequence (looked up): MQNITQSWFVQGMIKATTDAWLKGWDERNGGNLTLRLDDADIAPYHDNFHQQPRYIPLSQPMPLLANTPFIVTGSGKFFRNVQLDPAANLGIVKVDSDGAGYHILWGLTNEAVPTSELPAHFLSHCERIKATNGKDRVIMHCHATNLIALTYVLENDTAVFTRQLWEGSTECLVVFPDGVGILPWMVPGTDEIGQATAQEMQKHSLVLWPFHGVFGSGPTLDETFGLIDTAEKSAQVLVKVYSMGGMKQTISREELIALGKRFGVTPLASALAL

[3] = molecular target: T3, SoxS (E. coli K-12, UniProt P0A9E2 1-107)
T3 construct: SoxS, E. coli K-12
T3 sequence (looked up): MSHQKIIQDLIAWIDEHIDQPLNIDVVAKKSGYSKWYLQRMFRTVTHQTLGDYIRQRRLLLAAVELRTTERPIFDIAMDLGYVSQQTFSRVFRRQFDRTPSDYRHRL

[4] = molecular target: T4, YhaJ (E. coli K-12, UniProt P67660 1-298)
T4 construct: YhaJ, E. coli K-12
T4 sequence (looked up): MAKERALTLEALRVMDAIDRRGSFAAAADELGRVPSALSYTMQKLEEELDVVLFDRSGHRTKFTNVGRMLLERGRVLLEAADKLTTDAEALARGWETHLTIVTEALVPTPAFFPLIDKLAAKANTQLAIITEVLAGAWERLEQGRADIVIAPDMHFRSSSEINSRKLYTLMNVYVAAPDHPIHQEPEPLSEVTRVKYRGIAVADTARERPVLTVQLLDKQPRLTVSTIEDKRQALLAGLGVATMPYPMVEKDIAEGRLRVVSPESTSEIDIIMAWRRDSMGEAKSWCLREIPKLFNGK

[5] = molecular target: T5, CreB (E. coli K-12, UniProt P08368 1-229)
T5 construct: CreB, E. coli K-12
T5 sequence (looked up): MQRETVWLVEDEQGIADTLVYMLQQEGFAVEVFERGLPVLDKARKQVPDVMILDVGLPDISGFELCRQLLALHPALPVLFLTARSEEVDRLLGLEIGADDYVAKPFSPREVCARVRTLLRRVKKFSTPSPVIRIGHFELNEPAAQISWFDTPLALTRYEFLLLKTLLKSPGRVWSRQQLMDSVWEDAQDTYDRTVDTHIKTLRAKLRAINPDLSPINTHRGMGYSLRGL

[6] = molecular target: T6, HyaF (E. coli K-12, UniProt P19932 1-285)
T6 construct: HyaF, E. coli K-12
T6 sequence (looked up): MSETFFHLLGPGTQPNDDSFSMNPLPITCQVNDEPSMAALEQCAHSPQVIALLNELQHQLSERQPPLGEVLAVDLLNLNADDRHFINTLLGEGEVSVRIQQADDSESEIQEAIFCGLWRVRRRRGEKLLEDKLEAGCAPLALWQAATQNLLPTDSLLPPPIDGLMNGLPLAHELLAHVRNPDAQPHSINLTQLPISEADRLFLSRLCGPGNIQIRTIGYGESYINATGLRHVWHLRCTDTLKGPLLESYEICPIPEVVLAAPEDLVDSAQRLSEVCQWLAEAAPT

Measured: binding result

B1: N-terminal biotinylated Lactoferricin B (peptide, UniProt P24627 36-60, looked up)
peptide: Biotin-FKCRRWQWRMKKLGAPSITCVRRAF
modifications: ends and bridges not checked
notes: lactoferricin B (LfcinB), cationic antimicrobial peptide of 25 amino acids; also called biotinylated LfcinB; biotin-labeled LfcinB; source: bought: Kelowna Inc
binds: [1] | [2] | [3] | [4] | [5] | [6]
